From patent publication US20050214813A1

B1: PSEC0129 (supernatant containing the product expressed from the clone of SEQ ID NO: 3) (protein)
chain: AFHASAVGLRSSDEQKQQPPNSFSQQHSETQGAEKPDPESSHSPPRYTDQGGEEEEDYESEEQLQHRILTAALEFVPAHGWTAEAIAEGAQVCIGEGGAT
B2: PSEC0242 (supernatant containing the product expressed from the clone of SEQ ID NO. 7) (protein)
chain: MMGLGNGRRSMKSPPLVLAALVACIIVLGFNYWIASSRSVDLQTRIMELEGRVRRAAAERGAVELKKNEFQGELEKQREQLDKIQSSHNFQLESVNKLYQDEKAVLVNNITTGERLIRVLQDQLKTLQRNYGRLQQDVLQFQKNQTNLERKFSYDLSQCINQMKEVKEQCEERIEEVTKKGNEAVASRDLSENNDQRQQLQALSEPQPRLQAAGLPHTEVPQGKGNVLGNSKSQTPAPSSEVVLDSKRQVEKEETNEIQVVNEEPQRDRLPQEPGREQVVEDRPVGGRGFGGAGELGQTPQVQAALSVSQENPEMEGPERDQLVIPDGQEEEQEAAGEGRNQQKLRGEDDYNMDENEAESETDKQAALAGNDRNIDVFNVEDQKRDTINLLDQREKRNHTL
B3: PSEC0220 (supernatant containing the product expressed from the clone of SEQ ID NO. 5) (protein)
chain: LWWAVGSPLVMDPTSICRKARRLAGRQAELCQAEPEVVAELARGARLGVRECQFQFRFRRWNCSSHSKAFGRILQQDIRETAFVFAITAAGASHAVTQACSMGELLQCGCQAPRWRAPPRPSGLPGTPGPPGPAGSPEGSAAWEWGGCGDDVDFGDEKSRLFMDARHKRGRGDIRALVQLHNNEAGRLAVRSHTRTECKCHGLSGSCALRTCWQKLPPFREVGARLLERFHGASRVMGTNDGKALLPAVRTLKPPGRADLLYAADSPDFCAPNRRTGSPGTRGRACNSSAPDLSGCDLLCCGRGHRQESVQLEENCLCRFHWCCVVQCHRCRVRKELSLCL
B4: PSEC0256 (supernatant containing the product expressed from the clone of SEQ ID NO. 9) (protein)
chain: MAGHSMVLVEILDVNDNVPEVMVTSLSLPVQEDAQVGTVIALISVSDRDSGANGQVICSLTPHVPFKLVSTYKNYYSLVLDSALDRESVSAYELVVTARDGGSPSLWATARVSVEVADVNDNAPAFAQPEYTVFVKENNPPGCHIFTVSAWDADAQKNALVSYSLVERRVGEHALSSYVSVHAESGKVYALQPLDHEELELLQFQVSARDAGVPPLGSNVTLQVFVLDENDNAPALLATPAGSAGGAVSELVPRSVGAGHVVAKVRAVDADSGYNAWLSYELQPAAVGAHIPFHVGLYTGEISTTRILDEADAPRHRLLVLVKDHGEPALTSTATVLVSLVENGQAPKTSSRASVGAVDPEAALVDINVYLIIAICAVSSLLVLTLLLYTALRCSAPPTVSRCAPGKPTLVCSSAVGSWSYSQQRRQRVCSAESPPKTDLMAFSPSLQLSREDCLNPPSEPRQPNPDWRYSASLRAGMHSSVHLEEAGILRAGPGGPDQQWPTVSSATPEPEAGEVSPPVGAGVNSNSWTFKYGPGNPKQSGPGELPDKFIIPGSPAIISIRQEPTNSQIDKSDFITFGKKEETKKKKKKKKGNKTQEKKEKGNSTTDNSDQ

Biological target: Aβ1-28 consisting of 28 amino acid residues from the N-terminus of Aβ (UniProt P05067)
Test: cell-based or functional assay

Chain of Aβ1-28 consisting of 28 amino acid residues from the N-terminus of Aβ (P05067 672-699): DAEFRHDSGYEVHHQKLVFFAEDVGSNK

Row | Binder | Fluorescence Intensity (thioflavin-T, Aβ1-28 aggregation after 24 hours, relative to the Aβ40-1 control taken as 100%) [%]
1 | B1 | 24
2 | B2 | 16
3 | B3 | 250
4 | B4 | 460
